Measurements taken from patent US20260167699A1 (Chugai, published 2026).

B1: GpH7-A5/GpH7-B3 variant T335_09D/GpL16-k0 (antibody, human IgG1, kappa)
heavy 1: not shown
heavy 2: not shown
light: DIVMTQSPLSLPVTPGEPASISCQASESLVHSNRNTYLHWYLQKPGQSPQLLIYKVSNRFSGVPDRFSGSGSGTDFTLKISRVEAEDVGVYYCSQNTHVPPTFGQGTKVEIERTVAAPSVFIFPPSDEQLKSGTASVVCLLNNFYPREAKVQWKVDNALQSGNSQESVTEQDSKDSTYSLSSTLTLSKADYEKHKVYACEVTHQGLSSPVTKSFNRGEC
notes: copies: 1 + 1 + 2
B2: GpH7-A5/GpH7-B3 variant V266_07I/GpL16-k0 (antibody, human IgG1, kappa)
heavy 1: not shown
heavy 2: not shown
light: DIVMTQSPLSLPVTPGEPASISCQASESLVHSNRNTYLHWYLQKPGQSPQLLIYKVSNRFSGVPDRFSGSGSGTDFTLKISRVEAEDVGVYYCSQNTHVPPTFGQGTKVEIERTVAAPSVFIFPPSDEQLKSGTASVVCLLNNFYPREAKVQWKVDNALQSGNSQESVTEQDSKDSTYSLSSTLTLSKADYEKHKVYACEVTHQGLSSPVTKSFNRGEC
notes: copies: 1 + 1 + 2
B3: GpH7-A5/GpH7-B3 variant V266_08L/GpL16-k0 (antibody, human IgG1, kappa)
heavy 1: not shown
heavy 2: not shown
light: DIVMTQSPLSLPVTPGEPASISCQASESLVHSNRNTYLHWYLQKPGQSPQLLIYKVSNRFSGVPDRFSGSGSGTDFTLKISRVEAEDVGVYYCSQNTHVPPTFGQGTKVEIERTVAAPSVFIFPPSDEQLKSGTASVVCLLNNFYPREAKVQWKVDNALQSGNSQESVTEQDSKDSTYSLSSTLTLSKADYEKHKVYACEVTHQGLSSPVTKSFNRGEC
notes: copies: 1 + 1 + 2
B4: GpH7-A5/GpH7-B3 variant V266_02A/GpL16-k0 (antibody, human IgG1, kappa)
heavy 1: not shown
heavy 2: not shown
light: DIVMTQSPLSLPVTPGEPASISCQASESLVHSNRNTYLHWYLQKPGQSPQLLIYKVSNRFSGVPDRFSGSGSGTDFTLKISRVEAEDVGVYYCSQNTHVPPTFGQGTKVEIERTVAAPSVFIFPPSDEQLKSGTASVVCLLNNFYPREAKVQWKVDNALQSGNSQESVTEQDSKDSTYSLSSTLTLSKADYEKHKVYACEVTHQGLSSPVTKSFNRGEC
notes: copies: 1 + 1 + 2
B5: GpH7-A5/GpH7-B3 variant T335_15Y/GpL16-k0 (antibody, human IgG1, kappa)
heavy 1: not shown
heavy 2: not shown
light: DIVMTQSPLSLPVTPGEPASISCQASESLVHSNRNTYLHWYLQKPGQSPQLLIYKVSNRFSGVPDRFSGSGSGTDFTLKISRVEAEDVGVYYCSQNTHVPPTFGQGTKVEIERTVAAPSVFIFPPSDEQLKSGTASVVCLLNNFYPREAKVQWKVDNALQSGNSQESVTEQDSKDSTYSLSSTLTLSKADYEKHKVYACEVTHQGLSSPVTKSFNRGEC
notes: copies: 1 + 1 + 2
B6: GpH7-A5/GpH7-B3 variant T335_12R/GpL16-k0 (antibody, human IgG1, kappa)
heavy 1: not shown
heavy 2: not shown
light: DIVMTQSPLSLPVTPGEPASISCQASESLVHSNRNTYLHWYLQKPGQSPQLLIYKVSNRFSGVPDRFSGSGSGTDFTLKISRVEAEDVGVYYCSQNTHVPPTFGQGTKVEIERTVAAPSVFIFPPSDEQLKSGTASVVCLLNNFYPREAKVQWKVDNALQSGNSQESVTEQDSKDSTYSLSSTLTLSKADYEKHKVYACEVTHQGLSSPVTKSFNRGEC
notes: copies: 1 + 1 + 2
B7: GpH7-A5/GpH7-B3 variant T335_05P/GpL16-k0 (antibody, human IgG1, kappa)
heavy 1: not shown
heavy 2: not shown
light: DIVMTQSPLSLPVTPGEPASISCQASESLVHSNRNTYLHWYLQKPGQSPQLLIYKVSNRFSGVPDRFSGSGSGTDFTLKISRVEAEDVGVYYCSQNTHVPPTFGQGTKVEIERTVAAPSVFIFPPSDEQLKSGTASVVCLLNNFYPREAKVQWKVDNALQSGNSQESVTEQDSKDSTYSLSSTLTLSKADYEKHKVYACEVTHQGLSSPVTKSFNRGEC
notes: copies: 1 + 1 + 2
B8: GpH7-A5/GpH7-B3 variant T335_10E/GpL16-k0 (antibody, human IgG1, kappa)
heavy 1: not shown
heavy 2: not shown
light: DIVMTQSPLSLPVTPGEPASISCQASESLVHSNRNTYLHWYLQKPGQSPQLLIYKVSNRFSGVPDRFSGSGSGTDFTLKISRVEAEDVGVYYCSQNTHVPPTFGQGTKVEIERTVAAPSVFIFPPSDEQLKSGTASVVCLLNNFYPREAKVQWKVDNALQSGNSQESVTEQDSKDSTYSLSSTLTLSKADYEKHKVYACEVTHQGLSSPVTKSFNRGEC
notes: copies: 1 + 1 + 2
B9: GpH7-A5/GpH7-B3 variant T335_19Q/GpL16-k0 (antibody, human IgG1, kappa)
heavy 1: not shown
heavy 2: not shown
light: DIVMTQSPLSLPVTPGEPASISCQASESLVHSNRNTYLHWYLQKPGQSPQLLIYKVSNRFSGVPDRFSGSGSGTDFTLKISRVEAEDVGVYYCSQNTHVPPTFGQGTKVEIERTVAAPSVFIFPPSDEQLKSGTASVVCLLNNFYPREAKVQWKVDNALQSGNSQESVTEQDSKDSTYSLSSTLTLSKADYEKHKVYACEVTHQGLSSPVTKSFNRGEC
notes: copies: 1 + 1 + 2
B10: GpH7-A5/GpH7-B3 variant T335_16H/GpL16-k0 (antibody, human IgG1, kappa)
heavy 1: not shown
heavy 2: not shown
light: DIVMTQSPLSLPVTPGEPASISCQASESLVHSNRNTYLHWYLQKPGQSPQLLIYKVSNRFSGVPDRFSGSGSGTDFTLKISRVEAEDVGVYYCSQNTHVPPTFGQGTKVEIERTVAAPSVFIFPPSDEQLKSGTASVVCLLNNFYPREAKVQWKVDNALQSGNSQESVTEQDSKDSTYSLSSTLTLSKADYEKHKVYACEVTHQGLSSPVTKSFNRGEC
notes: copies: 1 + 1 + 2
B11: GpH7-A5/GpH7-B3 variant T335_13S/GpL16-k0 (antibody, human IgG1, kappa)
heavy 1: not shown
heavy 2: not shown
light: DIVMTQSPLSLPVTPGEPASISCQASESLVHSNRNTYLHWYLQKPGQSPQLLIYKVSNRFSGVPDRFSGSGSGTDFTLKISRVEAEDVGVYYCSQNTHVPPTFGQGTKVEIERTVAAPSVFIFPPSDEQLKSGTASVVCLLNNFYPREAKVQWKVDNALQSGNSQESVTEQDSKDSTYSLSSTLTLSKADYEKHKVYACEVTHQGLSSPVTKSFNRGEC
notes: copies: 1 + 1 + 2
B12: GpH7-A5/GpH7-B3 variant T335_03V/GpL16-k0 (antibody, human IgG1, kappa)
heavy 1: not shown
heavy 2: not shown
light: DIVMTQSPLSLPVTPGEPASISCQASESLVHSNRNTYLHWYLQKPGQSPQLLIYKVSNRFSGVPDRFSGSGSGTDFTLKISRVEAEDVGVYYCSQNTHVPPTFGQGTKVEIERTVAAPSVFIFPPSDEQLKSGTASVVCLLNNFYPREAKVQWKVDNALQSGNSQESVTEQDSKDSTYSLSSTLTLSKADYEKHKVYACEVTHQGLSSPVTKSFNRGEC
notes: copies: 1 + 1 + 2

biological target: T1, FcγRIIIa (human, UniProt P08637 17-208); assay: SPR (Biacore);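 also: antibody variants captured on an SPR sensor chip, with FcγRIIIa passed over as analyte in HBS-EP+ buffer at 25 °C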
T1 construct: extracellular domain; also called 3a; FcγRIIIa extracellular domain
T1 sequence (P08637 other isoform, or with tags, fused parts or gaps): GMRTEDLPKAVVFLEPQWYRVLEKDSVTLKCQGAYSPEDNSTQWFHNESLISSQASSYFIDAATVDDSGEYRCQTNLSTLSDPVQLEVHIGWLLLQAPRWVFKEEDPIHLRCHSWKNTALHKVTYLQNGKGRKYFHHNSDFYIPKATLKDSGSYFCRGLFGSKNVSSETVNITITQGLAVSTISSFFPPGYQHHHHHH

Point of comparison: B4, “He/Con 3a” value 56.8 % of GpH7-A5/GpH7-B3/GpL16-k0. Against it:
- B1 — higher, 103 % of GpH7-A5/GpH7-B3/GpL16-k0
- B2 — higher, 113 % of GpH7-A5/GpH7-B3/GpL16-k0
- B3 — higher, 117 % of GpH7-A5/GpH7-B3/GpL16-k0
- B5 — higher, 99.7 % of GpH7-A5/GpH7-B3/GpL16-k0
- B6 — higher, 93.1 % of GpH7-A5/GpH7-B3/GpL16-k0
- B7 — higher, 100 % of GpH7-A5/GpH7-B3/GpL16-k0
- B8 — higher, 102 % of GpH7-A5/GpH7-B3/GpL16-k0
- B9 — higher, 97.7 % of GpH7-A5/GpH7-B3/GpL16-k0
- B10 — higher, 99.3 % of GpH7-A5/GpH7-B3/GpL16-k0
- B11 — higher, 100 % of GpH7-A5/GpH7-B3/GpL16-k0
- B12 — higher, 96.3 % of GpH7-A5/GpH7-B3/GpL16-k0
